The text below walks through data of patent US20210115121A1 (UCB, published 2021).

For assay [1], the target named is T1, Tau from human Alzheimer's disease brain (isolated Tau PHF fibrils from Alzheimer's disease patients) (human, UniProt P10636-8 2-441, limits assumed). As to the kind of experiment: cell-based or functional assay.
Assay [2] addresses Tau from human frontotemporal dementia brain (human, UniProt P10636-8 2-441, limits assumed). Put plainly: cell-based or functional assay.
Assay [3] has as its target human Tau P301L from brain of P301L Tau transgenic mice (human, UniProt P10636-8 2-441, limits assumed). Put plainly: cell-based or functional assay.
For assay [4], the target named is T2, monomeric Tau isoform-2 expressed in E. coli (human, UniProt P10636 2-758).
T2 construct: also called Ecoli iso-2; E. coli Tau
As to the kind of experiment: SPR, Biacore T200, Tau amine-immobilised, mFab as analyte. The protocol:
(§1) Absorption at 280 nm was used to determine the concentration of the Fab stock solutions for the BIAcore analysis. An insoluble Tau protein preparation from Alzheimer's disease patients (AD-PHF, fraction 11), the HEK-derived Tau isoform-2 monomers (amino acids 1-441), and the isoform-2 monomers expressed in E. coli were amine immobilized onto the CMS chip, and binding of anti-Tau mFabs was measured with the Biacore T200 instrument. The buffer HBS-EP from GE Healthcare was used for immobilizations apart from the AD-PHF for which 10 mM acetic acid (pH3.0) was used. The HBS-EP+buffer was supplemented with 300 mM NaCl and 1.25% CM-Dextran (Sigma) and used as the assay buffer. While flow cell (Fc) 1 was used as a reference, the following RU values were obtained for Fc2-4: 44 RU with 5 μg/ml E. coli Tau, 56 RU with 5 μg/m HEK Tau, and 500 RU with a 1:20 diluted solution of the AD-PHF material. Two 60 s cycles of 10 mM Glycine (pH1.7) were used for regeneration. Flow rates of 10 μl/min were used for immobilization and regeneration while a 30 μl/min flow rate was used for analyte binding. For AD-PHF, multiple manual injections were applied to reach 500 RU, including EDC/NHS and EtoA capping. Five start-up cycles and 12 cycles per mFab sample or buffer control were applied, using 90 μl analyte injections for either 180 s or 300 s for dissociation. 11 1:3 dilutions of a 600 nM solution plus buffer were used for each mFab. AB1 was analyzed using the BIAcore test.

Assay [5] deals with T3, monomeric Tau isoform-2 derived from mammalian HEK293 cells (human, UniProt P10636 2-758).
T3 construct: also called HEK iso-2; HEK Tau
The description is as above. The protocol:
as §1

The target in assay [6] is T1, Tau from human Alzheimer's disease …. Put plainly: SPR, Biacore T200, AD-PHF fraction 11 amine-immobilised, mFab as analyte. Here is the method: as §1
Assay [7] has as its target T4, tau peptide 234-250, N-acetyl-KSPSSAKSRLQTAPVPM-amide (human).
T4 peptide: Ac-KSPSSAKSRLQTAPVPM-NH2
Put plainly: X-ray crystallography of the Fab/peptide co-complex. From the text:
We collected the x-ray diffraction data through a single L14H18 Fab/tau peptide 234-250 crystal. The crystal was suspended in a litho loop and flash frozen under liquid nitrogen, after briefly passing through a cryoprotectant solution containing 30% polyethylene glycol 4000, 0.2M calcium chloride, 0.1M HEPES buffer pH 7.5 and 10% ethylene glycol. The diffraction data was collected on a Pilatis 6M at the 104-1 beamline station at the Diamond synchrotron, Didcot, Oxfordshire, UK. The wavelength of the monochromatic x-ray beam was 0.92819A. The reciprocal space was sampled at 0.2° oscillation steps around the φ goniostat axis. The processed data XIA file provided from the synchrotron facility was used for structure determination
For model building the computer program Coot (Emsley P., Lohkamp B., Scott W. G., Cowton K. Acta Crystallography D Biol Crystallography, 2010 April; 66 (Pt 4): 486-501) was used. Refinement was carried out using the program REFMAC (Murshudov G. N., Skubak P., Lebedev A. A., Pannu N. S., Steiner R. A., Nicholls R. A., Winn M. D., Long F., Vagin A. A. Acta Crystallogr D Biol Crystallogr 2011 April; 67 (Pt 4): 355-67).
The interaction between antibody L14H18 and tau peptide, N-acetyl-[…]-amide (based on human tau isoform 2 sequence 234 to 250), was studied by x-ray crystallography using a co-complex prepared from L14H18 Fab fragment incubated with the peptide. […]

The target in assay [8] is Tau from human progressive supranuclear palsy brain (human, UniProt P10636-8 2-441, limits assumed). As to the kind of experiment: cell-based or functional assay.

Numbering of substitutions follows the chain as printed. Values joined by “and” are separate entries in the source; they are usually repeats but may differ in a detail not shown here. Equal entries are not always repeated.

Chain of Tau from human frontotemporal dementia brain (P10636 other isoform, or with tags, fused parts or gaps limits assumed): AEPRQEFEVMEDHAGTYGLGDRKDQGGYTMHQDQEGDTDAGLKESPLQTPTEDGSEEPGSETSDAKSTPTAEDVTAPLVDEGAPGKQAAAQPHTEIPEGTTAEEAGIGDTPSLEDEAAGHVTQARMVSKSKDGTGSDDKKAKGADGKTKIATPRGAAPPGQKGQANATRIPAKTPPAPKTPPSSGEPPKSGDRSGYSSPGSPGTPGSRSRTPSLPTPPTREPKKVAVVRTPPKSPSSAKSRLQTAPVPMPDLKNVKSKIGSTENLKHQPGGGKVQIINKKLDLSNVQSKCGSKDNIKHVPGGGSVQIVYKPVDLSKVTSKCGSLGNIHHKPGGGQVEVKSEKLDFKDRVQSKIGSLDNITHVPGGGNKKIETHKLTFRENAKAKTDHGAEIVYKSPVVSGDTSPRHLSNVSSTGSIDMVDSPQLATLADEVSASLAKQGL
T3 sequence (P10636 other isoform, or with tags, fused parts or gaps limits assumed): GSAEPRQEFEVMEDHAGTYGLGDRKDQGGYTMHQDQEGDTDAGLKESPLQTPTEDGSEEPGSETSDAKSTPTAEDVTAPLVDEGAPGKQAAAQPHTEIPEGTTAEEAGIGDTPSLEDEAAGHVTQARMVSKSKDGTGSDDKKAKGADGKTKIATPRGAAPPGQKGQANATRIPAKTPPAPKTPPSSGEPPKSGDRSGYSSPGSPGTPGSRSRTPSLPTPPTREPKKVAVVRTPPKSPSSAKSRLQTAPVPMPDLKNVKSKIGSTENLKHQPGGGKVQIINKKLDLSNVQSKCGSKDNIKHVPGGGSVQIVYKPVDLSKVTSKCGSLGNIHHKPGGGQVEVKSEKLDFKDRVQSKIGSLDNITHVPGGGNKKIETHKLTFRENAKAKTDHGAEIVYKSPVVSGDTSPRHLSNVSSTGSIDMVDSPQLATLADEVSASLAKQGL
Chain of human Tau P301L from brain of P301L Tau transgenic mice (P10636 other isoform, or with tags, fused parts or gaps P301L P301L P301L P301L limits assumed): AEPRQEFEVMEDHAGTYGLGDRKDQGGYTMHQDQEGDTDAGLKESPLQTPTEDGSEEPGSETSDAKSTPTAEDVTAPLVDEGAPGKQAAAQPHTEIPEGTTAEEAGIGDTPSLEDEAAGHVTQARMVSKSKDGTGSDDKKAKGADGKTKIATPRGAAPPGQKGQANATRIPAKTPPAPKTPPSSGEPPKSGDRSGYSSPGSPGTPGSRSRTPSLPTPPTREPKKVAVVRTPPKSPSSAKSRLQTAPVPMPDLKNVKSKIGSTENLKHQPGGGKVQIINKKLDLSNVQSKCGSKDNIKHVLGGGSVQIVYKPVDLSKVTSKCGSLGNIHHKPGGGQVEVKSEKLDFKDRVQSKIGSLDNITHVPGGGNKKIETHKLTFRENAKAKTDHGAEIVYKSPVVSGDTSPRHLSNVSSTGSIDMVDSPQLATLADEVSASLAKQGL

B1: AB1 having a rat VL of SEQ ID NO: 7 and a rat VH of SEQ ID NO.:8 (antibody, IgG1, V domains shown)
VH: EVKLEESGPGLMQPSETLSLTCTVSGFSLTSNDIAWVRQPLGKGLVWMGTIWTDGSTNYNSAVQSRLSISRDTSKSQFFLKMNSLQPEDTGTYYCARHRLYYGAFDYWGQGTMVTVS
VL: DIVMTQTPVSLSVTLGDQASISCRSSQSLEYSDGYTYLEWYLQKPGQSPQLLIYEVSNRFSGVPDRFIGSGSGTDFTLKISRVEPEDLGVYYCFQATHNPYTFGAGTKLEIK
B1: the “IC50 (cellular Tau aggregation assay)” value was 4 nM in assay [1], 3 nM in assay [2] and 30 nM in assay [3]. Also, the figures for the “Imax (maximal efficacy at 300 nM, cellular Tau aggregation assay)” value (from here on “Imax”) in assay [1], in assay [2] and in assay [3] were 98%, 97% and 89%, respectively.

B2: mFab AB1 having a rat VL of SEQ ID No.: 7 and a rat VH of SEQ ID No.: 8 (Fab, V domains shown)
VH: B1 VH
VL: B1 VL
notes: also called AB1 Fab; anti-Tau mFab
One may read the Kd as the free concentration of one partner at which half of the binding sites on the other are occupied at equilibrium, for simple one-to-one binding. Lower therefore signals higher affinity. Usually koff stands for the first-order rate constant of dissociation. Usually kon stands for the rate constant with which the complex forms. Read a high kon as fast association. Take B2: the Kd was 160 nM in assay [4]; 160 nM and 170 nM in assay [5]; 190 nM and 180 nM in assay [6]. The koff in assay [4] was 0.011 s⁻¹; in assay [5], 0.011 s⁻¹; in assay [6], 0.0096 s⁻¹ and 0.008 s⁻¹. Further, the kon in assay [4] is 69000 M⁻¹ s⁻¹ and 73000 M⁻¹ s⁻¹; in assay [5], 70000 M⁻¹ s⁻¹ and 66000 M⁻¹ s⁻¹; in assay [6], 52000 M⁻¹ s⁻¹ and 44000 M⁻¹ s⁻¹.

B3: Tau-binding antibody having the light chain of SEQ ID No.: 14 and the heavy chain of SEQ ID No.:17 (antibody, human IgG4 S228P, kappa, V domains shown)
VH: EVQLQESGPGLVKPSETLSLTCTVSGFSLTSNDIAWIRQPPGKGLEWMGTIWTDGSTNYNAAVQSRVTISVDTSKNQFSLKLSSVTAADTAVYYCARHRLYYGAFDYWGQGTMVTVSS
VL: DIVMTQTPLSLSVTPGQPASISCRSSQSLEYSDGYTYLEWYLQKPGQSPQLLIYEVSNRFSGVPDRFSGSGSGTDFTLKISRVEAEDVGVYYCFQATHNPYTFGQGTKLEIKR
Regarding B3, in assay [1], the “IC50 (cellular Tau aggregation assay)” value turned out to be 11 nM and the “Imax” value is 98%.

B4: L14H18 Fab (Fab, V domains shown)
VH: B3 VH with A61T
VL: B3 VL
notes: also called L14H18 Fab fragment; L14H18 Fab protein
Turning to B4, the binding result in assay [7] is listed as “binds”.

B5: Tau-binding antibody having the light chain of SEQ ID No.: 14 and the heavy chain of SEQ ID No.:18 (antibody, human IgG4 S228P, kappa, V domains shown)
VH: B3 VH with A61T
VL: B3 VL
Take B5: the figures for the “IC50 (cellular Tau aggregation assay)” value in assay [1], in assay [8] and in assay [2] were 12 nM, 42 nM and 1 nM, respectively. The figures for the “Imax” value in assay [1], in assay [8] and in assay [2] were 98%, 100% and 99%, respectively.
